From patent US6344321, “Nucleic acid ligands which bind to hepatocyte growth factor/scatter factor (HGF/SF) or its receptor c-met” (Gilead Sciences, Inc.)

B1: 11-151 (ssRNA)
RNA: GGGAGGACGAUGCGGUGAGUCAUAGUGUUGAUCGUCGUAUCCCGUCAGACGACUCGCCCGA
modifications: 2'-F pyrimidines
B2: 8-17 (ssRNA)
RNA: GGGAGGACGAUGCGGGCGGCUCGAUGUCGUCUUAUCCCUUUGCCCCAGACGACUCGCCCGA
modifications: 2'-F pyrimidines
B3: 8-158 (ssRNA)
RNA: GGGAGGACGAUGCGGCCGGCUCGAUGUCGUCUUACCCCUUUGCCCCAGACGACUCGCCCGA
modifications: 2'-F pyrimidines
B4: 11-65 (ssRNA)
RNA: GGGAGGACGAUGCGGUGAUAACCUGUUUAUGCCAUCGUGCUGGGCCAGACGACUCGCCCGA
modifications: 2'-F pyrimidines
B5: 11-8 (ssRNA)
RNA: GGGAGGACGAUGCGGUCAGUAUGACUUUUAUAGCACGUUCGCCCCAGACGACUCGCCCGA
modifications: 2'-F pyrimidines
B6: 11-157 (ssRNA)
RNA: GGGAGGACGAUGCGGUCAGAAUGACUUUCAUAGCACGCUUUCCCCAGACGACUCGCCCGA
modifications: 2'-F pyrimidines
B7: 11-163 (ssRNA)
RNA: GGGAGGACGAUGCGGGCUUGAGUCUUUGAUCGUCUUAUCCCUCGUCAGACGACUCGCCCGA
modifications: 2'-F pyrimidines
B8: 8-113 (ssRNA)
RNA: GGGAGGACGAUGCGGUGAAUUCCUCUGGCUGAAAAUGACUUGUGCCAGACGACUCGCCCGA
modifications: 2'-F pyrimidines
B9: 11-166 (ssRNA)
RNA: GGGAGGACGAUGCGGGUUUGAGUUCUGACACGUCUUGUCCCAUGCCAGACGACUCGCCCGA
modifications: 2'-F pyrimidines
B10: 11-212 (ssRNA)
RNA: GGGAGGACGAUGCGGGUUUGAGUUAAACAUCGGUUUUCUCCUGCAGACGACUCGCCCGA
modifications: 2'-F pyrimidines
B11: 8-126 (ssRNA)
RNA: GGGAGGACGAUGCGGGUGACUCAAAAUGGUGAUCCUCGUUUCCGCCAGACGACUCGCCCGA
modifications: 2'-F pyrimidines
B12: 8-112 (ssRNA)
RNA: GGGAGGACGAUGCGGUCCCGAAUUUAAGUGCGUUUCCUCCGCGUCCAGACGACUCGCCCGA
modifications: 2'-F pyrimidines
B13: 8-154 (ssRNA)
RNA: GGGAGGACGAUGCGGUCCCAAGAUUCAGGGCGUUUCUUCCUCGUCCAGACGACUCGCCCGA
modifications: 2'-F pyrimidines
B14: 8-123 (ssRNA)
RNA: GGGAGGACGAUGCGGUCCCGAGUUUGAGGGCGUUUCUUCUUCGUCCAGACGACUCGCCCGA
modifications: 2'-F pyrimidines
B15: 11-126 (ssRNA)
RNA: GGGAGGACGAUGCGGGUUUGGGUCUUGAUCUCGUCUUGUCCCGUGCAGACGACUCGCCCGA
modifications: 2'-F pyrimidines
B16: 8-165 (ssRNA)
RNA: GGGAGGACGAUGCGGCGAGAGCCUAUUUAUGUCAUCAUGCCUGUGCAGACGACUCGCCCGA
modifications: 2'-F pyrimidines
B17: 8-114 (ssRNA)
RNA: GGGAGGACGAUGCGGCGUGAGCCUAUUUAUGUCAUCAUGUCUGUGCAGACGACUCGCCCGA
modifications: 2'-F pyrimidines
B18: 8-171 (ssRNA)
RNA: GGGAGGACGAUGCGGCGGGAGCCUUUUUAUGUCAUCAUGUCUGUGCAGACGACUCGCCCGA
modifications: 2'-F pyrimidines
B19: 11-222 (ssRNA)
RNA: GGGAGGACGAUGCGGACAUAAGUCUUCUAUAGCUCGUCCUUUGUGCAGACGACUCGCCCGA
modifications: 2'-F pyrimidines
B20: 11-208 (ssRNA)
RNA: GGGAGGACGAUGCGGGUUUGAGUGACGAUCGUCUUGUCCCAUGUGCAGACGACUCGCCCGA
modifications: 2'-F pyrimidines
B21: 11-59 (ssRNA)
RNA: GGGAGGACGAUGCGGCGUGAGCCUGUAUAUGUCAUUGUUCUCCGGCAGACGACUCGCCCGA
modifications: 2'-F pyrimidines
B22: 8-119 (ssRNA)
RNA: GGGAGGACGAUGCGGGCCAUUCGAUCGAUUCUCCGCCGGAUCGUGCAGACGACUCGCCCGA
modifications: 2'-F pyrimidines
B23: 11-215 (ssRNA)
RNA: GGGAGGACGAUGCGGGUAGUGAGUUUUCAUUGUCUUGUCCCCGUGCAGACGACUCGCCCGA
modifications: 2'-F pyrimidines
B24: 11-7 (ssRNA)
RNA: GGGAGGACGAUGCGGGUGGAGUCAAAUCGUCUUGUCCCUUGUCCUCAGACGACUCGCCCGA
modifications: 2'-F pyrimidines
B25: 11-221 (ssRNA)
RNA: GGGAGGACGAUGCGGGCAGAGCGAAAAUCGUCUUGUCCCCGACGCCAGACGACUCGCCCGA
modifications: 2'-F pyrimidines
B26: 11-104 (ssRNA)
RNA: GGGAGGACGAUGCGGGUUUGAGUGAUGUCGUCUUGUCCCGCCUGCCAGACGACUCGCCCGA
modifications: 2'-F pyrimidines
B27: 8-104 (ssRNA)
RNA: GGGAGGACGAUGCGGGCGACUCAAUCUGAAUCGUCUUGUCCCGUGCAGACGACUCGCCCGA
modifications: 2'-F pyrimidines
B28: 11-9 (ssRNA)
RNA: GGGAGGACGAUGCGGCGUGAGCCUGUUUAUGACCUCGUCCAUGGCCAGACGACUCGCCCGA
modifications: 2'-F pyrimidines
B29: 11-158 (ssRNA)
RNA: GGGAGGACGAUGCGGCGAUAGCCUAUUUAUGACCUCGUCCCCGUGCAGACGACUCGCCCGA
modifications: 2'-F pyrimidines
B30: 11-217 (ssRNA)
RNA: GGGAGGACGAUGCGGCGUGAGCCUUCCAAUGACGUCGUCCUUGGCCAGACGACUCGCCCGA
modifications: 2'-F pyrimidines
B31: 11-17 (ssRNA)
RNA: GGGAGGACGAUGCGGGUUAGAGCGUGACAGUCGUCUUAUCCCGGGUCACAGACGACUCGCCCGA
modifications: 2'-F pyrimidines
B32: 8-118 (ssRNA)
RNA: GGGAGGACGAUGCGGGGCGACUUUCCUCCAAUUCUCACCUCUGCACAGACGACUCGCCCGA
modifications: 2'-F pyrimidines
B33: 8-103 (ssRNA)
RNA: GGGAGGACGAUGCGGGCCGAAAAUUCGUCGACAUCUCCCUGUCUGCAGACGACUCGCCCGA
modifications: 2'-F pyrimidines
B34: 11-6 (ssRNA)
RNA: GGGAGGACGAUGCGGGACGCGUUGAUUCAUCGUCUUAUCCUGCUGCAGACGACUCGCCCGA
modifications: 2'-F pyrimidines
B35: 8-155 (ssRNA)
RNA: GGGAGGACGAUGCGGUGUGAACCUAUUUAUGCCAUCUCGAGUGCCCAGACGACUCGCCCGA
modifications: 2'-F pyrimidines
B36: 8-122 (ssRNA)
RNA: GGGAGGACGAUGCGGCGGUGUGAACCUGUUUAUGUCCGCGUACCCCAGACGACUCGCCCGA
modifications: 2'-F pyrimidines
B37: 11-76 (ssRNA)
RNA: GGGAGGACGAUGCGGUCAGCGGCGCGAGCCUGUUUAUGUCUGCUGCAGACGACUCGCCCGA
modifications: 2'-F pyrimidines
B38: 11-165 (ssRNA)
RNA: GGGAGGACGAUGCGGGUUGAUAGGAGUCAUCAUCGUCUUGUCCGCCAGACGACUCGCCCGA
modifications: 2'-F pyrimidines
B39: 8-3 (ssRNA)
RNA: GGGAGGACGAUGCGGAUCCCGCGACCAGGGCGUUUCUUCCUCGUCCCAGACGACUCGCCCGA
modifications: 2'-F pyrimidines
B40: 8-174 (ssRNA)
RNA: GGGAGGACGAUGCGGUCGAGCUUCUGAGUUAAACUGGGGCCUCCUCAGACGACUCGCCCGA
modifications: 2'-F pyrimidines
B41: 11-110 (ssRNA)
RNA: GGGAGGACGAUGCGGUGAUUACCUAUUUAUGUCAUGCUCCUCCCCCAGACGACUCGCCCGA
modifications: 2'-F pyrimidines
B42: 11-153 (ssRNA)
RNA: GGGAGGACGAUGCGGACAGGUAGUCUUCUAUAGCACUUCCUCCCCCAGACGACUCGCCCGA
modifications: 2'-F pyrimidines
B43: 8-101 (ssRNA)
RNA: GGGAGGACGAUGCGGGUGACUCAAAAUGGUGAUCCUCGAUUUCCGCCAGACGACUCGCCCGA
modifications: 2'-F pyrimidines
B44: 11-223 (ssRNA)
RNA: GGGAGGACGAUGCGGUCAGUAUGGCUUCUAUAGCUCGUUCCUCGGCAGACGACUCGCCCGA
modifications: 2'-F pyrimidines
B45: 11-123 (ssRNA)
RNA: GGGAGGACGAUGCGGGUGACUCAAAAUGGUGAUCCUCGUUUCGCCAGACGACUCGCCCGA
modifications: 2'-F pyrimidines
B46: 8-125 (ssRNA)
RNA: GGGAGGACGAUGCGGUGUGAACCUGUUUAUGUCAUCUUUUGUCGUCAGACGACUCGCCCGA
modifications: 2'-F pyrimidines
B47: 11-103 (ssRNA)
RNA: GGGAGGACGAUGCGGUGAUUACCUAUUAUGUCUCGCCCUCUCCAGACGACUCGCCCGA
modifications: 2'-F pyrimidines

Biological target: HGF (hepatocyte growth factor/scatter factor) (UniProt P14210;P14210 P14210:32-494,P14210:495-728)
Test: filter; HBSMC, 37C
Conditions: tags: R&D Systems
Protocol: In binding reactions, RNA concentrations were kept as low as possible—between 1 and 20 pM—to ensure equilibrium in conditions of protein excess. Oligonucleotides were incubated for 15 minutes at 37° C. with varying amounts of the protein in 43 µl of the binding buffer. Thirty-two microliters of each binding mixture placed on pre-wet 0.45 µm nitrocellulose filters under suction. Each well was immediately washed with 0.5 ml binding buffer. The amount of radioactivity retained on the filters was quantitated by imaging. The radioactivity that bound to filters in the absence of protein was used for background correction. The percentage of input oligonucleotide retained on each filter spot was plotted against the corresponding log protein concentration. The nonlinear least square method was used to obtain the dissociation constant (K_d; reference Jellinek, Lynott et al. 1993, Proc. Natl. Acad. Sci. USA. 90:11227–31).

Chain of HGF (hepatocyte growth factor/scatter factor) (P14210 32-494, chain 1 of 2): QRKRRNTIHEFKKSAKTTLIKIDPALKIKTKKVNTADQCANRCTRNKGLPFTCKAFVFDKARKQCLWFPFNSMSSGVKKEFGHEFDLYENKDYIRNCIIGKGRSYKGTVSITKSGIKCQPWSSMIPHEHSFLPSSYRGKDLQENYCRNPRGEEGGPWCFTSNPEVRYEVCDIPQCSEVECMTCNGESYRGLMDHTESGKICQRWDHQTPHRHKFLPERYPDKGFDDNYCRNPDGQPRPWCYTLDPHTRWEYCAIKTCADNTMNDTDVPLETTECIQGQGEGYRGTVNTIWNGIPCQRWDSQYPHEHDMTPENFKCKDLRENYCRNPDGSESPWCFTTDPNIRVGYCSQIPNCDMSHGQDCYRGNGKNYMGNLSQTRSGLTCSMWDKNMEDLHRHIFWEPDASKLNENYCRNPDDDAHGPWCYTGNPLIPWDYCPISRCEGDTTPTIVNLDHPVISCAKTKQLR
Chain of HGF (hepatocyte growth factor/scatter factor) (P14210 495-728, chain 2 of 2): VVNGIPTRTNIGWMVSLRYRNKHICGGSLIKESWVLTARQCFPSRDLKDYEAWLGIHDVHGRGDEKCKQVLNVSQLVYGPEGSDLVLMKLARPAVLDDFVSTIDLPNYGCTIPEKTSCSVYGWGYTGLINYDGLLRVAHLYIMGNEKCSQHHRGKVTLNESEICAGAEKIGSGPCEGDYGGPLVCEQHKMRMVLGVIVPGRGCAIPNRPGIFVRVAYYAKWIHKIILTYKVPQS

Binder	Kd [nM]
B1	0.17
B2	0.095
B3	0.31
B4	0.11
B5	0.15
B6	0.26
B7	0.082
B8	0.083
B9	0.079
B10	0.075
B11	0.099
B12	0.13
B13	0.12
B14	0.21
B15	0.17
B16	0.1
B17	0.071
B18	0.12
B19	0.077
B20	0.06
B21	0.11
B22	0.11
B23	0.091
B24	0.11

Binder	Kd [nM]
B25	0.062
B26	0.091
B27	0.05
B28	0.074
B29	0.17
B30	0.071
B31	0.13
B32	0.16
B33	0.12
B34	0.24
B35	0.093
B36	0.097
B37	0.076
B38	0.073
B39	0.13
B40	0.23
B41	0.086
B42	0.19
B43	0.095
B44	0.12
B45	0.09
B46	0.075
B47	0.2
